This is an account of results in US20230348852A1, “METHODS AND COMPOSITIONS FOR OCULAR CELL THERAPY” (NOVARTIS AG, priority 2020, published 2023).

The subject of data set [1] is B2M. In words: sgRNA screening for B2M knockout in LSCs (nucleofection, FACS). The format is cell-based, human. The conditions noted are these: Cas9 protein SEQ ID NO: 106, LSCs at passage 3, FACS after around 3 days. The protocol:
Cells were cultured under these conditions for 24-48 hours at 37° C. in 5% CO2.
LSCs were nuclofected with selected gRNAs (Table 6) followed by FACS analysis / MACS separation.
After scraping the cells, the reaction was stopped by using cell culture medium containing 10% Serum and transferred to a falcon tube. After counting cells using Vi-cell 300′000 cells were prepared per reaction by transferring 300′000 cells in single tubes and centrifuged at 1000 rpm for 5 min. The supernatant was aspirated using manually pipetting to avoid cell loss and the cells were resuspended in the Stem cell nucleofector solution II (Lonza, Cat #VPH-5022). Resuspend cells in nucleofector solution immediately before adding the Cas9 RNP:sgRNA mixture. To obtain the nucleofection mixture, 5 µg high concentrated (≥5 µg/µl) Cas9 protein of SEQ ID NO: 106 (volume = 0.78 µl) was mixed with 19.5 µg sgRNA of Table 6 (volume = 12.2 µl) and incubated for 20 min at room temperature. […] The Cas9 protein-guideRNA complex was added to the cell suspension and transferred to the electroporation cuvette immediately. Cells were transfected using the nucelofector device (Lonza, Amaxa Nucleofector II) and program A023. After nucleofection cells were transferred from cuvette to one well of a 24 well synthemax coated plate containing pre-warmed LSC medium including 3 µM LATS compound and 10 µM Rock inhibitor Y-27632 (Nature 1997, vol. 389, pp. 990-994). Incubate LSCs in a 5% CO2 incubator for around 3 days until cells are 90% confluent.
LSCs were treated with TryLE®Express Enzym (ThermoFisher, Cat #12605010) for 15 minutes in 5% CO2 at 37° C. After scraping the cells, the reaction was stopped by using cell culture medium containing 10% Serum and transferred to a falcon tube for a centrifugation step (1000 rpm, 5 minutes). After aspirating the medium cells were resuspended in 200 µl FACS buffer (PBS/10%FBS).
To analyze the expression of B2M and HLA-ABC, 5 µl APC mouse anti-human β2-microglobulin antibody (Biolegend, Cat#316312) and 20 µl PE mouse anti-human HLA-ABC antibody (BD Bioscience, Cat # 560168) were added to the cell suspension and incubated for 30 minutes on ice.
Cells were washed 3 times after antibody labelling with FACS buffer and resuspended in 200 µl in FACS buffer (depending on the cell number).
FACS data were analyzed using BD FACSDiva software and FlowJo software.

The test system of data set [2] is genomic DNA purified from male human peripheral blood mononuclear cells. As to the kind of experiment: Biochemical assay for potential off-target genomic sites cleaved by Cas9 and B2M guides. The conditions noted are these: number of potential off-target sites, guide concentration 64 nM. The procedure: A biochemical method (See, e.g., Cameron et al., Nature Methods. 6, 600-606; 2017) was used to determine potential off-target genomic sites cleaved by Cas9 and selected B2M guides. Guides showing B2M indel activity were tested for potential off-target genomic cleavage sites with this assay. […] The number of potential off-target sites detected using a guide concentration of 64 nM in the biochemical assay are shown in Table 10. As a result of this analysis, several gRNAs were selected for analysis of potential off-target activity in limbal stem cells.

The subject of data set [3] is B2M. As to the kind of experiment: Targeted PCR and NGS (amplicon sequencing) of on-target and off-target sites in genome-edited LSCs. The format is cell-based, human. The following applies: for validated indels for off-target activity in LSCs: amplicon sequencing of potential off-target loci; for Number of sites positive for off-target activity in LSCs: of the potential off-target loci sequenced; for B2M purified rhAmpSeq indel: purified (B2M negative) LSC populations. The protocol: Potential CRISPR/Cas9-mediated cutting sites identified above were evaluated using targeted PCR and NGS in genome-edited expanded LSCs.
Selected sgRNAs (SEQ ID NO: 120, 162, 166, 167, 171, and 175) were further analyzed by amplicon sequencing in edited and non-edited cells. Primers flanking the potential off-target sites for each guide were used to detect indels by NGS analysis in edited LSCs and non-edited peripheral blood mononuclear cells. Sites that had either (1) a difference in mean indel percentage between edited and unedited cells greater than 0.5%; or (2) a p value less than 0.05 between edited and unedited indel were further analyzed. NGS sequence reads for such sites were assessed for characteristic indel patterns near the putative Cas9 cut site. Based on the results, we could assess the specificity of gRNAs and their suitability for therapeutic applications.

In another data set the test system is human B2M. In words: CRISPR/Cas9-mediated deletion of B2M in HEK293 (lipofection, FACS). The format is cell-based. The following applies: lipofection of tracrRNA, gRNA and Cas9 mRNA; FACS after 72 h. The procedure:
One day before transfection, 500′000 HEK293cells (ATCC, Manassas, VA) were plated in a 35 mm dish and grown in DMEM/10%FBS. The following day, cells were transfected with a mixture of tracrRNA-gRNA-Cas9 mRNA. A stock of 10 micromolar was prepared resuspending 20 nanomoles of gRNA and 20 nanomoles tracrRNA in 2000 microlitre 10 millimolar Tris buffer pH7.4 each.
The mixture was added drop wise to the culture dish in 2.5 ml DMEM/10%FBS medium. The transfection reagent alone represented the transfection negative control.
After 6 h incubation in 5% CO2 at 37° C. medium was replaced with fresh DMEM/10%FBS medium. After 72 h in a 5% CO2 incubator cells were prepared for FACS analysis. FACS analysis: HEK293 cells were treated with Accutase (ThermoFisher, Cat # A1110501) for 20 minutes in 5% CO2 at 37° C. The reaction was stopped by using cell culture medium containing 10% Serum and transferred to a falcon tube for a centrifugation step (1000 rpm, 5 minutes). After aspirating the medium cells were resuspended in 200 microlitre FACS buffer (PBS/10%FBS).
To analyze the expression of B2M and HLA-ABC, 5 microlitre APC mouse anti-human β2-microglobulin antibody (Biolegend, Cat #316312) and 20 microlitre PE mouse anti-human HLA-ABC antibody (BD Bioscience, Cat # 560168) were added to the cell suspension and incubated for 30 minutes on ice. Cells were washed 3 times after antibody labelling with FACS buffer and resuspended in 500 microlitre in FACS buffer.
Each sample was transferred to one well of a round bottom 96 well plate and analyzed on a BD LSRFortessa X-20 device. FACS data were analyzed using BD FACSDiva software.

B1: CR000456: gRNA targeting human B2M; targeting domain SEQ ID NO: 139; sgRNA SEQ ID NO: 176 (nucleic acid)
guide: CUUACCCCACUUAACUAUCUGUUUUAGAGCUAGAAAUAGCAAGUUAAAAUAAGGCUAGUCCGUUAUCAACUUGAAAAAGUGGCACCGAGUCGGUGCUUUU
modifications: listed as RNA, chemistry not given here
B1: the “B2M knockout efficiency in LSCs after nucleofection” value (from here on “B2M knockout efficiency in LSCs”) in the data set with B2M [1] is given as 3%. In data set [2], the “off-target Site_ Count” value was 66.

B2: CR000455: gRNA targeting human B2M; targeting domain SEQ ID NO: 138; sgRNA SEQ ID NO: 175 (nucleic acid)
guide: UUACCCCACUUAACUAUCUUGUUUUAGAGCUAGAAAUAGCAAGUUAAAAUAAGGCUAGUCCGUUAUCAACUUGAAAAAGUGGCACCGAGUCGGUGCUUUU
modifications: listed as RNA, chemistry not given here
With B2, the “B2M knockout efficiency in LSCs” value in the data set on B2M [1] is listed as 24%. For the same molecule, in data set [2], the “off-target Site_ Count” value came out at 48. Moreover, in the data set on B2M [3], the “validated indels for off-target activity in LSCs” value was “zero”, the “Number of sites positive for off-target activity in LSCs” value (shortened to “Number of sites positive”) was 0 of 46 and the “B2M purified rhAmpSeq indel” value is reported as 99.33±0.32%. In the data set on B2M [3] (listed as SEQ ID NO: 175), the “Number of sites positive” value is “no predicted sites tested positive for off-target activity” and the “B2M purified rhAmpSeq indel” value was ~ 99%.

B3: CR000446: gRNA targeting human B2M; targeting domain SEQ ID NO: 136; sgRNA SEQ ID NO: 173 (nucleic acid)
guide: AGGGUAGGAGAGACUCACGCGUUUUAGAGCUAGAAAUAGCAAGUUAAAAUAAGGCUAGUCCGUUAUCAACUUGAAAAAGUGGCACCGAGUCGGUGCUUUU
modifications: listed as RNA, chemistry not given here
Consider B3, for which the “B2M knockout efficiency in LSCs” value in the data set with B2M [1] was 27%. For the same molecule, the “off-target Site_ Count” value in data set [2] is 98.

B4: 6-HEYJA000001: gRNA targeting human B2M; targeting domain SEQ ID NO: 113; sgRNA SEQ ID NO: 164 (nucleic acid)
guide: GGCCGAGAUGUCUCGCUCCGGUUUUAGAGCUAGAAAUAGCAAGUUAAAAUAAGGCUAGUCCGUUAUCAACUUGAAAAAGUGGCACCGAGUCGGUGCUUUU
modifications: listed as RNA, chemistry not given here
Regarding B4, in the data set with human B2M, the “B2M knockout efficiency in HEK293” value stood at 47%. Moreover, the “B2M knockout efficiency in LSCs” value in the data set on B2M [1] is given as 33%. In addition, the “off-target Site_ Count” value in data set [2] is 8.

B5: CR000442: gRNA targeting human B2M; targeting domain SEQ ID NO: 134; sgRNA SEQ ID NO: 171 (nucleic acid)
guide: GGCCACGGAGCGAGACAUCUGUUUUAGAGCUAGAAAUAGCAAGUUAAAAUAAGGCUAGUCCGUUAUCAACUUGAAAAAGUGGCACCGAGUCGGUGCUUUU
modifications: listed as RNA, chemistry not given here
Turning to B5, the “B2M knockout efficiency in LSCs” value in the data set on B2M [1] is 62%. The “off-target Site_ Count” value in data set [2] worked out at 29. Moreover, in the data set on B2M [3], the “validated indels for off-target activity in LSCs” value is “zero”, the “Number of sites positive” value was 0 of 28 and the “B2M purified rhAmpSeq indel” value was determined as 99.10±0.26%. Also, in the data set with B2M [3] (listed as SEQ ID NO: 171), the “Number of sites positive” value was “no predicted sites tested positive for off-target activity” and the “B2M purified rhAmpSeq indel” value is reported as ~ 99%.

B6: 7-HEYJA000003: gRNA targeting human B2M; targeting domain SEQ ID NO: 114; sgRNA SEQ ID NO: 165 (nucleic acid)
guide: CUCGCGCUACUCUCUCUUUCGUUUUAGAGCUAGAAAUAGCAAGUUAAAAUAAGGCUAGUCCGUUAUCAACUUGAAAAAGUGGCACCGAGUCGGUGCUUUU
modifications: listed as RNA, chemistry not given here
For the molecule B6, the “B2M knockout efficiency in HEK293” value in the data set with human B2M is 37%. For the same molecule, the “B2M knockout efficiency in LSCs” value with B2M [1] is 8%.

B7: CR000443: gRNA targeting human B2M; targeting domain SEQ ID NO: 135; sgRNA SEQ ID NO: 172 (nucleic acid)
guide: CGCGAGCACAGCUAAGGCCAGUUUUAGAGCUAGAAAUAGCAAGUUAAAAUAAGGCUAGUCCGUUAUCAACUUGAAAAAGUGGCACCGAGUCGGUGCUUUU
modifications: listed as RNA, chemistry not given here
B7: in the data set with B2M [1], the “B2M knockout efficiency in LSCs” value came out at 25%. In data set [2], the “off-target Site_ Count” value was 117.

B8: CR000453: gRNA targeting human B2M; targeting domain SEQ ID NO: 137; sgRNA SEQ ID NO: 174 (nucleic acid)
guide: CACAGCCCAAGAUAGUUAAGGUUUUAGAGCUAGAAAUAGCAAGUUAAAAUAAGGCUAGUCCGUUAUCAACUUGAAAAAGUGGCACCGAGUCGGUGCUUUU
modifications: listed as RNA, chemistry not given here
As for B8, the “B2M knockout efficiency in LSCs” value in the data set on B2M [1] is on record as 5%. Also, in data set [2], the “off-target Site_ Count” value was determined as 82.
